Results taken from US11400139B2, “Anti-NET compounds for treating and preventing fibrosis and for facilitating wound healing” (THE CHILDREN'S MEDICAL CENTER CORPORATION, priority 2015, dated 2022).
“Also recorded” adds a separate entry of the source.

B1: DNase 1: DNase 1 (dornase alfa, Genentech), which disrupts NETs (protein, UniProt P24855 23-282, looked up)
Deoxyribonuclease-1: LKIAAFNIQTFGETKMSNATLVSYIVQILSRYDIALVQEVRDSHLTAVGKLLDNLNQDAPDTYHYVVSEPLGRNSYKERYLFVYRPDQVSAVDSYYYDDGCEPCGNDTFNREPAIVRFFSRFTEVREFAIVPLHAAPGDAVAEIDALYDVYLDVQEKWGLEDVMLMGDFNAGCSYVRPSQWSSIRLWTSPTFQWLIPDSADTTATPTHCAYDRIVVAGMLLRGAVVPDSALPFNFQAAYGLSDQLAQAISDHYPVEVMLK

What was measured:
PAD4 expressing cells = details: Subramanian et al.; cited from earlier work
[1] = tested on: neutrophil extracellular traps; details: Subramanian et al.; cited from earlier work
NETs [2] = details: pre-digestion of NETs with DNase 1, in vitro (Farrera and Fadeel); cited from earlier work
NETs [3] = experiment: Full-thickness excisional skin wound healing with systemic DNase 1 treatment; format: in vivo, mouse
Experimental: Mice were induced to be diabetic using multiple low dose injections of streptozotocin (STZ). Six to 8-week old male C57BL/6 or PAD4^−/− mice were randomized into treatment groups of either vehicle or STZ according to their blood glucose levels and body weight at baseline. Mice were fasted for 5 hours and then injected with vehicle or STZ (i.p., 50 mg/kg per day, pH 4, dissolved in 0.1 M sodium citrate buffer) for 5 consecutive days. Fed blood glucose level was measured starting 1 week afterwards. Mice with fed blood glucose level above 300 mg/dL were considered diabetic and used for further experiments. Pancreatic islets were stained for insulin using a rabbit polyclonal anti-insulin antibody (1:500, Cell Signaling, Cat. no. 4590).
Full-thickness excisional wounds were made on the dorsal skin under aseptic conditions as described^22. Mice were anesthetized with ketamine and xylazine (100 mg/kg and 10 mg/kg, respectively, i.p.). Hair was removed and the skin was cleaned with 70% ethanol and betadine. A fold of the dorsal skin was then picked up along the midline, placed over dental wax and punched through with a 4-mm disposable sterile biopsy punch (Miltex) such that 2 wounds were generated in one punch. The procedure was repeated, thus 4 wounds were made per mouse. The mice were housed individually after wounding. In experiments involving diabetic mice, all mice were provided ad libitum with antibiotics (2.5% Sulfatrim) in drinking water. Wounds were digitally photographed using a Sony Camcorder and total wound areas were calculated using ImageJ software. Wound area was expressed as a percentage compared to the area on day 0 when the wounds were made.
Neutrophil recruitment and re-epithelialization were examined in H&E-stained sections. Wounds were cut in half, fixed overnight in zinc fixative and embedded in paraffin. The tissue was sectioned at 10 μm and stained with H&E. Images were acquired with the Zeiss Axiovision software using an Axioplan light microscope coupled to a color Zeiss HRc camera.
Normoglycemic and diabetic WT mice, randomized by blood glucose levels before assigning to treatments, were injected with 10 μg i.v. and 50 μg i.p. DNase 1 (dornase alfa, Genentech) 30 min before wounding and then 50 μg i.p. every 12 hours until wound collection on day 3. Control mice were injected with vehicle (8.77 mg/mL sodium chloride and 0.15 mg/mL calcium chloride)^40.

[4] = normoglycemic WT mice, three days post wounding

Molecule | cell killing (PAD4 expressing cells) | formation of neutrophil extracellular traps [1] | clearance of NETs by macrophages (NETs [2]) | enhancement of re-epithelialization (NETs [3]; STZ-induced diabetic WT mice on antibiotics, day 3 post wounding) [%] | promotion of wound area reduction (NETs [3]; STZ-induced diabetic WT mice on antibiotics, day 3 post wounding, 10 μg i.v. and 50 μg i.p. before wounding, then 50 μg i.p. every 12 hours) [%] | wound healing (wound area reduction and re-epithelialization), in words (NETs [3]; WT mice, diabetic and normoglycemic) | further benefit in wound healing (NETs [3]; diabetic PAD4−/− mice, day 3 post wounding) | enhancement of re-epithelialization (NETs [3]; [4]) [%] | neutrophil recruitment to the wound (NETs [3]; [4]) | wound area versus vehicle (NETs [3]; [4])
CC(C)(C)n1nnc([C@H](CCCNC(=N)CCl)NC(=O)c2ccc(-c3ccccc3)cc2)n1 [BTT-Cl-amidine, biphenyl tetrazole tert-butyl Cl-amidine] | enhanced cell killing | blocks the formation | – | – | – | – | – | – | – | –
B1 | – | – | accelerated their clearance | > 75 | > 20 | accelerated wound healing; also recorded: facilitated wound area reduction | did not provide further benefits; also recorded: did not provide additional benefits | ~54 | not affected | smaller than in those treated with vehicle
